Measured values taken from US5441884.

Test system: T1, Tn5401 TnpA transposase (Bacillus thuringiensis var. morrisoni EG2158)
T1 sequence: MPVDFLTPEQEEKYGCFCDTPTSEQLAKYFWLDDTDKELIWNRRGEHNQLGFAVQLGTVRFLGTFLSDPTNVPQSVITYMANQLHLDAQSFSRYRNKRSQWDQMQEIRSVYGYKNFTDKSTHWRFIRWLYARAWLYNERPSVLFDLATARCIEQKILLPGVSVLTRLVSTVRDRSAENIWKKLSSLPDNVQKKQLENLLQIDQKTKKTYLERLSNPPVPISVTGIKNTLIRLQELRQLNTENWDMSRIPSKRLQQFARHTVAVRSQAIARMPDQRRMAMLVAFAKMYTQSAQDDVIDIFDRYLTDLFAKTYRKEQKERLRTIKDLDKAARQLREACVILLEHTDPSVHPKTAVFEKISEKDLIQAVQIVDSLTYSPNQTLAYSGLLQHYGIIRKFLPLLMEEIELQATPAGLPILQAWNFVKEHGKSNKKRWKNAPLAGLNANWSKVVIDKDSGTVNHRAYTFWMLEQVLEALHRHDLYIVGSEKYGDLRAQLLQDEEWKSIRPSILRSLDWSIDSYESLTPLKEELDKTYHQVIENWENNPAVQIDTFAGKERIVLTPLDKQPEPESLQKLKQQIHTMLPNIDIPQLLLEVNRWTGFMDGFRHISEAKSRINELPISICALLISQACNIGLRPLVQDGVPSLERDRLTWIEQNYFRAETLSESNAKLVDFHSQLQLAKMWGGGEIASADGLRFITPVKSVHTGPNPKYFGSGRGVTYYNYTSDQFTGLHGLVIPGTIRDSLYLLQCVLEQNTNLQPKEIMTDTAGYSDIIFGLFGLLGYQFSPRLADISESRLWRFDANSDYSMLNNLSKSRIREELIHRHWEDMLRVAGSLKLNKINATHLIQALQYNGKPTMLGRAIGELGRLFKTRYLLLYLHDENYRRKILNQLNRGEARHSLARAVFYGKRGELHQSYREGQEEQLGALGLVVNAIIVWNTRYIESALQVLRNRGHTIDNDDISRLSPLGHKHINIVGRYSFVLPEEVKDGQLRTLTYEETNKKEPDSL
Experiment: cell_activity
Settings: pEG922 in plasmid-free B.t. EG7566; 10^-1 to 10^-2 in a plasmid-containing strain; functional transposition, binding not measured directly

Tn5401 transposon with 53 bp terminal inverted repeats
activity (transposition frequency): 0.0001
